# Results: patent US20050222029A1 (MYRIAD GENETICS, published 2005)
# T1: Golgi autoantigen (Golgin-84) 198-501 (human, UniProt Q8TBA6 198-501)
# T1 construct: prey (Gal4 AD-HA fusion)
# T1 sequence (looked up): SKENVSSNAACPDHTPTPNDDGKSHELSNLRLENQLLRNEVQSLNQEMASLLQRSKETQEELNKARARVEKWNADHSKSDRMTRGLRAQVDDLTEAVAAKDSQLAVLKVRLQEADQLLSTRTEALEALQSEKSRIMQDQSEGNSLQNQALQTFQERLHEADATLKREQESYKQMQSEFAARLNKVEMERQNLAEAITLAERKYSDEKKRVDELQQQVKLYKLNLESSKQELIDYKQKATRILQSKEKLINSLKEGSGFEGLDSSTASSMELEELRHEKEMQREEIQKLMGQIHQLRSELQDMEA
# T2: VPS28 protein 9-211 (human, UniProt Q9UK41 9-211)
# T2 construct: prey (Gal4 AD-HA fusion); also called vacuolar protein sorting 28
# T2 sequence (looked up): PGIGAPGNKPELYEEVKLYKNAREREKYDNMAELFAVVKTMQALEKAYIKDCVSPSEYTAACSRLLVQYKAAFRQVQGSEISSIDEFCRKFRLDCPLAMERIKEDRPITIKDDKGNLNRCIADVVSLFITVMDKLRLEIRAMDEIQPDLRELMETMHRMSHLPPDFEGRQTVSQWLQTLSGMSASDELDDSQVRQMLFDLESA
# T3: Cytoplasmic linker 2 (CYLN2) 607-947 (human, UniProt Q9UDT6 607-947)
# T3 construct: prey (Gal4 AD-HA fusion)
# T3 sequence (looked up): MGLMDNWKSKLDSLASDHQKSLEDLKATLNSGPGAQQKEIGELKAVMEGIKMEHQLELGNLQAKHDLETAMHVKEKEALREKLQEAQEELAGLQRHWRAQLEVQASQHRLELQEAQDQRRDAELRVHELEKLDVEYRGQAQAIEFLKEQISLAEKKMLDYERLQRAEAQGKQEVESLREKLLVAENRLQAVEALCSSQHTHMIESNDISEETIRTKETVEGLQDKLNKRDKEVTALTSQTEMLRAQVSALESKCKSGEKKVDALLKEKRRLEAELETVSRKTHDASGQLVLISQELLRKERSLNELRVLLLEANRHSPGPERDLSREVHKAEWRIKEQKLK
# T4: VPS28 protein 10-221 (human, UniProt Q9UK41 10-221)
# T4 construct: prey (Gal4 AD-HA fusion); also called vacuolar protein sorting 28
# T4 sequence (looked up): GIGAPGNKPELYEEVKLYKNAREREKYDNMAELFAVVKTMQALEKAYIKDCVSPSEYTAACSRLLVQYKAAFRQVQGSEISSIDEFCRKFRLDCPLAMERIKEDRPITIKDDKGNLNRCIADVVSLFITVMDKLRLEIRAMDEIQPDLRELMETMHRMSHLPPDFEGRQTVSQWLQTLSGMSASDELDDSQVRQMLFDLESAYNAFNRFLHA
# T5: Protein kinase C and casein kinase substrate (PACSIN2) 174-367 (human, UniProt Q9UNF0 174-367)
# T5 construct: prey (Gal4 AD-HA fusion)
# T5 sequence (looked up): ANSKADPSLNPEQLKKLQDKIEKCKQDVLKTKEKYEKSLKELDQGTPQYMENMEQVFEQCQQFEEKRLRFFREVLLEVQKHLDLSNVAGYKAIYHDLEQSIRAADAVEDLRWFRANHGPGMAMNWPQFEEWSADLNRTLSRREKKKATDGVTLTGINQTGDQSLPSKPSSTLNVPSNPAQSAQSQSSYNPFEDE
# T6: PIBF1 392-758 (human, UniProt Q8WXW3 392-757)
# T6 construct: prey (Gal4 AD-HA fusion)
# T6 sequence (looked up): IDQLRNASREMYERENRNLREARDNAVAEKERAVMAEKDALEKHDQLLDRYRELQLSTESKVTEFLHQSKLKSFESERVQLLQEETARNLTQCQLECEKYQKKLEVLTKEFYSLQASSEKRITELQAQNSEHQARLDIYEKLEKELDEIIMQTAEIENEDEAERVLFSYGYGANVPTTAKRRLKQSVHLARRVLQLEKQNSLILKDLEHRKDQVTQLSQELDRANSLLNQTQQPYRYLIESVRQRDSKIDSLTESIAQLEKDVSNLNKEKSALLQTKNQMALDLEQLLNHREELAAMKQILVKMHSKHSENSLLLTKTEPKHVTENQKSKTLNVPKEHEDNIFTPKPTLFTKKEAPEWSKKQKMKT
# T7: Charcot-Leyden crystal protein; periplakin (PPL) 1548-1756 (human, UniProt O60437 1548-1756)
# T7 construct: prey (Gal4 AD-HA fusion)
# T7 sequence (looked up): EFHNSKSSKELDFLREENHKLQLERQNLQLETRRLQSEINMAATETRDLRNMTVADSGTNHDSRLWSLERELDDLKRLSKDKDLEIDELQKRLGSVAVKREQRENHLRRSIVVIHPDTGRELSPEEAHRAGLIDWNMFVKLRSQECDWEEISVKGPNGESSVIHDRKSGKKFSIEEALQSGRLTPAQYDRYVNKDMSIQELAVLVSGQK
# T8: golgi autoantigen, golgin subfamily a, 5 (Golgin-84) 609-731 (human, UniProt Q8TBA6 609-731)
# T8 construct: prey (Gal4 AD-HA fusion)
# T8 sequence (looked up): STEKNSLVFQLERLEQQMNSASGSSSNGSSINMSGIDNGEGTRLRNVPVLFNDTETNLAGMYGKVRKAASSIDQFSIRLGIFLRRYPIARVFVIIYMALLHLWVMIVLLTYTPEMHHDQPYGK
# Experiments:
# Test in all cases: yeast two-hybrid
# [1] = molecular target: T1, Golgi autoantigen (Golgin-84) 198-501
# VPS28 protein 9-211 = molecular target: T2, VPS28 protein 9-211
# [2] = molecular target: T3, Cytoplasmic linker 2 (CYLN2) 607-947
# VPS28 protein 10-221 = molecular target: T4, VPS28 protein 10-221
# [3] = molecular target: T5, Protein kinase C and casein kinase …
# PIBF1 392-758 = molecular target: T6, PIBF1 392-758
# [4] = molecular target: T9, Chromosome-associated polypeptide HCAP (HCAP) 119-353 (human, UniProt Q9UQE7 119-353)
# T9 construct: prey (Gal4 AD-HA fusion)
# [5] = molecular target: T7, Charcot-Leyden crystal protein; …
# [6] = molecular target: T8, golgi autoantigen, golgin subfamily a, …
# T9 sequence (Q9UQE7 119-353 limits assumed): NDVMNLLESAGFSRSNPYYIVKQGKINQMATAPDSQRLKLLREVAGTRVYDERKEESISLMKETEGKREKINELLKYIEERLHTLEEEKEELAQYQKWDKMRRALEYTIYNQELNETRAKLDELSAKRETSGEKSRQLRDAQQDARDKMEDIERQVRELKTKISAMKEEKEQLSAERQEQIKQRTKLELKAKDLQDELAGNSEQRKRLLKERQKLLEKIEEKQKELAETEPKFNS
binder,measurement,setting,value
"Tumor Suppressor (TSG101) 231-391 (other, human, UniProt Q99816 231-390, looked up, bait (Gal4 DBD fusion)) ISAVSDKLRWRMKEEMDRAQAELNALKRTEEDLKKGHQKLEEMVTRLDQEVAEVDKNIELLKKKDEELSSALEKMENQSENNDIDEVIIPTAPLYKQILNLYAEENAIEDTIFYLGEALRRGVIDLDVFLKHVRLLSRKQFQLRALMQKARKTAGLSDLY",binding result,[1],binds
same,binding result,VPS28 protein 9-211,binds
same,binding result,[2],binds
"Tumor Suppressor (TSG101) 265-391 (other, human, UniProt Q99816 265-390, looked up, range 265-391; bait (Gal4 DBD fusion); also called TSG101 265-390) KGHQKLEEMVTRLDQEVAEVDKNIELLKKKDEELSSALEKMENQSENNDIDEVIIPTAPLYKQILNLYAEENAIEDTIFYLGEALRRGVIDLDVFLKHVRLLSRKQFQLRALMQKARKTAGLSDLY",binding result,VPS28 protein 10-221,binds
same,binding result,[3],binds
"Tumor Suppressor (TSG101) 12-326 (other, human, UniProt Q99816 12-326, looked up, bait (Gal4 DBD fusion)) VSKYKYRDLTVRETVNVITLYKDLKPVLDSYVFNDGSSRELMNLTGTIPVPYRGNTYNIPICLWLLDTYPYNPPICFVKPTSSMTIKTGKHVDANGKIYLPYLHEWKHPQSDLLGLIQVMIVVFGDEPPVFSRPISASYPPYQATGPPNTSYMPGMPGGISPYPSGYPPNPSGYPGCPYPPGGPYPATTSSQYPSQPPVTTVGPSRDGTISEDTIRASLISAVSDKLRWRMKEEMDRAQAELNALKRTEEDLKKGHQKLEEMVTRLDQEVAEVDKNIELLKKKDEELSSALEKMENQSENNDIDEVIIPTAPLYK",binding result,PIBF1 392-758,binds
"Tumor Suppressor (TSG101) 264-391 (other, human, UniProt Q99816 264-390, looked up, range 264-391; bait (Gal4 DBD fusion)) KKGHQKLEEMVTRLDQEVAEVDKNIELLKKKDEELSSALEKMENQSENNDIDEVIIPTAPLYKQILNLYAEENAIEDTIFYLGEALRRGVIDLDVFLKHVRLLSRKQFQLRALMQKARKTAGLSDLY",binding result,[4],binds
"v-akt murine thymoma viral oncogene homolog 1 (AKT1) 1-109 (enzyme, human, UniProt P31749 1-109, looked up, bait (Gal4 DBD fusion)) MSDVAIVKEGWLHKRGEYIKTWRPRYFLLKNDGTFIGYKERPQDVDQREAPLNNFSVAQCQLMKTERPRPNTFIIRCLQWTTVIERTFHVETPEEREEWTTAIQTVADG",binding result,[5],binds
"v-akt murine thymoma viral oncogene homolog 1 (AKT1) 1-118 (enzyme, human, UniProt P31749 1-118, looked up, bait (Gal4 DBD fusion)) MSDVAIVKEGWLHKRGEYIKTWRPRYFLLKNDGTFIGYKERPQDVDQREAPLNNFSVAQCQLMKTERPRPNTFIIRCLQWTTVIERTFHVETPEEREEWTTAIQTVADGLKKQEEEEM",binding result,[6],binds
